Measurements published in publication PMC5253651, “Human farnesyl pyrophosphate synthase is allosterically inhibited by its own product” (Nature Communications, 2017).

Target: the molecule itself
Assay: crystal structure; human FPPS (10 mg/ml) crystallised with 1 mM FPP and 2 mM MgCl2, sitting drop, 22 °C; 1.9 Å; one subunit in the asymmetric unit, biological assembly a homodimer

B1: Human farnesyl pyrophosphate synthase (enzyme)
chain: MNGDQNSDVYAQEKQDFVQHFSQIVRVLTEDEMGHPEIGDAIARLKEVLEYNAIGGKYNRGLTVVVAFRELVEPRKQDADSLQRAWTVGWCVELLQAFFLVADDIMDSSLTRRGQICWYQKPGVGLDAINDANLLEACIYRLLKLYCREQPYYLNLIELFLQSSYQTEIGQTLDLLTAPQGNVDLVRFTEKRYKSIVKYKTAFYSFYLPIAAAMYMAGIDGEKEHANAKKILLEMGEFFQIQDDYLDLFGDPSVTGKIGTDIQDNKCSWLVVQCLQRATPEQYQILKENYGQKEAEKVARVKALYEELDLPAVFLQYEEDSYSHIMALIEQYAAPLPPAVFLGLARKIYKRRK
notes: Human farnesyl pyrophosphate synthase (FPPS), UniProt P14324 as printed; Crystallised with the small molecule FPP in the allosteric pocket; One subunit in the asymmetric unit; the homodimer arises by crystallographic symmetry; also called FPPS; human FPPS; source: E. coli BL21 (DE3), purified (Ni-nitrilotriacetic acid, Superdex 200 size-exclusion chromatography)
B1: binds.
